{"source": "patent US20150307617A1", "about": "(Genentech, published 2015)", "binders": {"B1": {"name": "1A7.gr.3 (antibody, V domains shown)", "VH": "EVQLVQSGAEVKKPGASVKVSCKASGYTFTDSYMSWVRQAPGQGLEWIGDMYPDNGDSSYNQKFRERVTLTVDTSTSTAYLELSSLRSEDTAVYYCVLAPRWYFSVWGQGTLVTVSS", "VL": "DIQMTQSPSSLSASVGDRVTITCRASQDISNYLNWYQQKPGKAPKLLIYYTSRLRSGVPSRFSGSGSGTDFTLTISSLQPEDFATYYCQQGHTLPPTFGQGTKVEIK", "notes": "human Fc"}, "B2": {"name": "1A7.gr.2 (antibody, V domains shown)", "VH": "B1 VH with L70I", "VL": "B1 VL", "notes": "human Fc (captured by anti-human Fc)"}, "B3": {"name": "1D2.gr.2 (antibody, V domains shown)", "VH": "EVQLVESGPGLVKPSETLSLTCTVSGFSLTDYGVLWIRQPPGKGLEWIGMIWSGGTTDYNAAFISRVTISKDTSKNQVSLKLSSVTAADTAVYYCVREEMDYWGQGTLVTVSS", "VL": "B1 VL with Y32F, R55H, H92N, P96W", "notes": "human Fc"}, "B4": {"name": "1D2.gr.3 (antibody, V domains shown)", "VH": "B3 VH with I37V, I48L, V67L", "VL": "B1 VL with Y32F, R55H, H92N, P96W", "notes": "human Fc"}, "B5": {"name": "1D2.gr.1 (antibody, V domains shown)", "VH": "B3 VH with K71V, V78F", "VL": "B1 VL with Y32F, R55H, H92N, P96W", "notes": "human Fc"}, "B6": {"name": "1A7.gr.6 (antibody, V domains shown)", "VH": "B1 VH with L70I", "VL": "B1 VL with A43T, P44V, T69K, F71Y, Y87F", "notes": "human Fc"}, "B7": {"name": "1A7.gr.4 (antibody, V domains shown)", "VH": "B1 VH with L70I", "VL": "B1 VL with A43T, P44V", "notes": "human Fc"}, "B8": {"name": "1A7.gr.5′ (antibody, V domains shown)", "VH": "B1 VH", "VL": "B1 VL with A43T, P44V", "notes": "human Fc"}, "B9": {"name": "1A7.gr.7′ (antibody, V domains shown)", "VH": "B1 VH", "VL": "B1 VL with A43T, P44V, T69K, F71Y, Y87F", "notes": "human Fc"}, "B10": {"name": "3C8.gr.1 (antibody, V domains shown)", "VH": "EVQLVQSGAEVKKPGASVKVSCKASGYAFTNYLIEWVRQAPGQGLEWIGVINPGSGDTYYSEKFKGRVTITRDTSTSTAYLELSSLRSEDTAVYYCARDRLDYWGQGTLVTVSS", "VL": "DIQMTQSPSSLSASVGDRVTITCHASQDISSYIVWYQQKPGKAPKLLIYHGTNLEDGVPSRFSGSGSGTDFTLTISSLQPEDFATYYCVHYAQFPYTFGQGTKVEIK", "notes": "human Fc"}, "B11": {"name": "3C8.gr.DA (antibody, V domains shown)", "VH": "B10 VH with T58A, I70L, R72A", "VL": "B10 VL with A43S, P44F, L46G", "notes": "also called 3C8.gr.5.DA"}, "B12": {"name": "3C8.gr.3 (antibody, V domains shown)", "VH": "B10 VH with I70L, R72A", "VL": "B10 VL", "notes": "human Fc"}, "B13": {"name": "3C8.gr.2 (antibody, V domains shown)", "VH": "B10 VH with R72A", "VL": "B10 VL", "notes": "human Fc"}, "B14": {"name": "3C8.gr.4 (antibody, V domains shown)", "VH": "B10 VH with R72A", "VL": "B10 VL with A43S, P44F, L46G", "notes": "human Fc"}, "B15": {"name": "3C8.gr.7 (antibody, V domains shown)", "VH": "B10 VH with I70L, R72A", "VL": "B10 VL with A43S, P44F, L46G, T69A, F71Y", "notes": "human Fc"}, "B16": {"name": "3C8.gr.10 (antibody, V domains shown)", "VH": "B10 VH with I70L", "VL": "B10 VL with P44F", "notes": "human Fc"}, "B17": {"name": "3C8.gr.8 (antibody, V domains shown)", "VH": "B10 VH with I70L", "VL": "B10 VL with A43S, P44F, L46G", "notes": "human Fc"}, "B18": {"name": "3C8.gr.9 (antibody, V domains shown)", "VH": "B10 VH with I70L", "VL": "B10 VL with A43S", "notes": "human Fc"}, "B19": {"name": "3C8.gr.6 (antibody, V domains shown)", "VH": "B10 VH with R72A", "VL": "B10 VL with A43S, P44F, L46G, T69A, F71Y", "notes": "human Fc"}, "B20": {"name": "3C8.gr.5.QG (antibody, V domains shown)", "VH": "B10 VH with I70L, R72A", "VL": "B10 VL with A43S, P44F, L46G, D56Q"}, "B21": {"name": "3C8.gr.DQ (antibody, V domains shown)", "VH": "B10 VH with T58Q, I70L, R72A", "VL": "B10 VL with A43S, P44F, L46G", "notes": "also called 3C8.gr.5.DQ"}, "B22": {"name": "3C8.gr.11 (antibody, V domains shown)", "VH": "B10 VH with I70L", "VL": "B10 VL with L46G", "notes": "human Fc"}, "B23": {"name": "1A7.gr.SGDS (antibody, V domains shown)", "VH": "B1 VH with N55S, L70I, V72R", "VL": "B1 VL"}, "B24": {"name": "1A7.gr.NADA (antibody, V domains shown)", "VH": "B1 VH with G56A, S58A, L70I, V72R", "VL": "B1 VL"}, "B25": {"name": "1A7.gr.DA (antibody, V domains shown)", "VH": "B1 VH with S32A, L70I, V72R", "VL": "B1 VL"}, "B26": {"name": "1A7.gr.DANADA (antibody, V domains shown)", "VH": "B1 VH with S32A, G56A, S58A, L70I, V72R", "VL": "B1 VL"}, "B27": {"name": "1A7.gr.NGSS (antibody, V domains shown)", "VH": "B1 VH with D57S, L70I, V72R", "VL": "B1 VL"}, "B28": {"name": "1A7.gr.NADS (antibody, V domains shown)", "VH": "B1 VH with G56A, L70I, V72R", "VL": "B1 VL"}}, "note": "Substitutions are numbered along the chain they refer to."}
{"target": "T1, Human OX40 (Sino Biological Inc) (human, UniProt P43489 29-216, limits assumed)", "T1 construct": "Bought soluble protein used as SPR analyte; also called huOX40", "T1 sequence": "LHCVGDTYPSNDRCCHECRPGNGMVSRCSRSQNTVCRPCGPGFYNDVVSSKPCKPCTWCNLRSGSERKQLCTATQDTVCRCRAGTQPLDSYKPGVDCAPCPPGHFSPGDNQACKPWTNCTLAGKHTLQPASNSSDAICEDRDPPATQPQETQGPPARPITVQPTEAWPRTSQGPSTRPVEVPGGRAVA", "experiment": "SPR (Biacore), antibody captured via anti-human Fc, huOX40 analyte", "description": "(§1) The binding kinetics of the anti-OX40 antibodies was measured using surface plasmon resonance (SPR) on a Biacore 3000 instrument (GE Healthcare). Anti-human Fc (GE Healthcare) was immobilized on a CM5 sensor chip via amine-based coupling using manufacturer provided protocol. Anti-OX40 antibody was captured at a level of 300-400 resonance units (RU). Antibody binding was measured to human OX40 (Sino Biological Inc). Two-fold concentration series of huOX40 with a range of either 18.75 to 300 nM or 6.25 to 200 nM were used for the experiments. Sensorgrams for binding of OX40 were recorded using an injection time of 2 minutes with a flow rate of 30 μl/min, at a temperature of 25° C., and with a running buffer of 10 mM HEPES, pH 7.4, 150 mM NaCl, and 0.005% Tween 20. After injection, disassociation of the ligand from the antibody was monitored for 600 seconds in running buffer. The surface was regenerated between binding cycles with a 40 μl injection of 3 M Magnesium Chloride.", "units": {"Kd": "nM", "koff": "s⁻¹", "kon": "M⁻¹ s⁻¹"}}
{"binder": "B1", "Kd": 0.525, "koff": 0.000243, "kon": 462000}
{"binder": "B2", "Kd": 0.524, "koff": 0.000233, "kon": 444000}
{"binder": "B3", "Kd": 55.9, "koff": 0.0178, "kon": 319000}
{"binder": "B4", "Kd": 59.5, "koff": 0.0163, "kon": 273000}
{"binder": "B5", "binding result": "binds"}
{"binder": "B6", "Kd": 0.177, "koff": "6.93e-05", "kon": 391000}
{"binder": "B7", "Kd": 0.472, "koff": 0.000163, "kon": 345000}
{"binder": "B8", "Kd": 1.77, "koff": 0.000492, "kon": 278000}
{"binder": "B9", "Kd": 0.36, "koff": 0.000145, "kon": 401000}
{"binder": "B10", "Kd": 6.49, "koff": 0.00267, "kon": 412000}
{"binder": "B11", "Kd": 12.9, "koff": 0.00502, "kon": 388000}
{"binder": "B12", "Kd": 3.94, "koff": 0.00196, "kon": 498000}
{"binder": "B13", "Kd": 5.48, "koff": 0.00255, "kon": 466000}
{"binder": "B14", "Kd": 2.2, "koff": 0.000923, "kon": 420000}
{"binder": "B15", "Kd": 1.41, "koff": 0.000685, "kon": 486000}
{"binder": "B16", "Kd": 2.84, "koff": 0.00108, "kon": 382000}
{"binder": "B17", "Kd": 2.16, "koff": 0.000709, "kon": 329000}
{"binder": "B18", "Kd": 4.28, "koff": 0.00173, "kon": 404000}
{"binder": "B19", "Kd": 3.08, "koff": 0.00122, "kon": 395000}
{"binder": "B20", "Kd": 1.17, "koff": 0.000534, "kon": 457000}
{"binder": "B21", "Kd": 8.12, "koff": 0.00309, "kon": 381000}
{"binder": "B22", "Kd": 2.86, "koff": 0.000917, "kon": 321000}
{"target": "T1, Human OX40 (Sino Biological Inc)", "experiment": "SPR (Biacore), antibody captured via anti-human Fc, huOX40 analyte", "remark": "another data set of the same source", "description": "as §1\nVariants were tested by Biacore as described above to evaluate binding kinetics and in co-stimulation assays to determine biological activity.", "units": {"Kd": "nM", "fold loss of binding affinity (against 1A7.gr.1)": "fold", "koff": "s⁻¹", "kon": "M⁻¹ s⁻¹"}}
{"binder": "B23", "Kd": 0.993, "fold loss of binding affinity (against 1A7.gr.1)": 2, "koff": 0.000228, "kon": 230000}
{"binder": "B24", "Kd": 0.355, "koff": 0.000108, "kon": 304000}
{"binder": "B25", "Kd": 0.259, "koff": "8.32e-05", "kon": 321000}
{"binder": "B26", "Kd": 0.557, "koff": 0.000215, "kon": 387000}
{"binder": "B27", "Kd": 0.311, "koff": 0.000108, "kon": 349000}
{"binder": "B28", "Kd": 0.442, "koff": 0.000121, "kon": 275000}
